{"source": "patent US20250034222A1", "about": "“IL-38 VARIANTS” (Monash University, priority 2021, published 2025)", "test": "Nano differential scanning fluorimetry of IL-38-Fc variants (apparent melting temperature)", "type": "physicochemical", "settings": "N-terminal IL-38-Fc variants, knobs-into-holes IgG1-Fc, IL-38 (C70V, C37S, C38R, C43A, C67A, C123S)", "excerpt": "Indicated IL-38 chains differing in their N-terminus were expressed and purified from Expi293 cells. The relative purification yield is indicated between the N-terminal variants. The stability of the purified product was monitored by nano differential scanning fluorimetry and is expressed as the apparent melting temperature (Tm). N-terminal variants (except 2-152) were trialled as “knobs-into-holes” IgG1-Fc fusions utilising the IL-38 (C70V, C37S, C38R, C43A, C67A, C123S) sequence. The 2-152 N-terminal variant was trialled as “knobs-into-holes” IgG1-Fc fusions utilising the IL-38 (C2A, C70V, C37S, C38R, C43A, C67A, C123S) sequence.\nIndicated linker variants were expressed and purified from Expi293 cells. The relative purification yield is indicated between the linker variants. The stability of the purified product was monitored by nano differential scanning fluorimetry and is expressed as the apparent melting temperature (Tm). […] All N-terminal linker variants were trialled as “knobs-into-holes” IgG1-Fc fusions utilising the IL-38 (C70V, C37S, C38R, C43A, C67A, C123S) sequence.", "data": [{"substance": "3-152: Knobs-into-holes IgG1-Fc fusion, IL-38 chain residues 3-152 (C70V, C37S, C38R, C43A, C67A, C123S); probably SEQ ID NO: 25/26", "values": [{"measurement": "Stability (apparent melting temperature, Tm)", "result": 66.0, "unit": "°C"}]}]}
